Test results published in patent publication US20040006022A1 (Harvard, published 2004).
Read-outs that look alike come from different tables or passages of the source.

Tests used:
[1] = target: recombinant water-soluble 'empty' HLA-DR4 (DRB1*0401) (human)
[2] = target: recombinant water-soluble 'empty' HLA-DR1 (DRB1*0101) (human); assay: competitive binding ELISA on recombinant HLA-DR1; competitor biotinylated YEAK
[3] = target: HLA-DR1 purified from human homozygous EBV-transformed B cell lines (human); assay: size-exclusion column of YEAK incubated with an excess of HLA-DR purified from B cell lines
[4] = target: HLA-DR2 purified from human homozygous EBV-transformed B cell lines (human); assay: as above
[5] = target: HLA-DR4 purified from human homozygous EBV-transformed B cell lines (human); assay: as above
[6] = target: recombinant water-soluble 'empty' HLA-DR1 (DRB1*0101) (human); assay: incubation 1:1 with water-soluble HLA-DR, Centricon ultrafiltration, acid extraction, amino acid analysis
[7] = target: recombinant water-soluble 'empty' HLA-DR2 (DRB1*1501) (human); assay: as above
[8] = target: recombinant water-soluble 'empty' HLA-DR4 (DRB1*0401) (human); assay: as above
[9] = target: T1, recombinant water-soluble 'empty' HLA-DR1 (DRB1*0101) (human); assay: competitive binding ELISA; competitors biotinylated Multipin peptides
T1 construct: extracellular domain

[10] = target: T2, recombinant water-soluble 'empty' HLA-DR4 (DRB1*0401) (human); assay: as above
T2 construct: extracellular domain; extracellular domain is inferred from 'water-soluble'

[11] = target: HLA-DR4 on L fibroblasts transfected with HLA-DR4 (human); assay: cell-based or functional assay
[12] = target: HLA-DR1 on L fibroblasts transfected with HLA-DR1 (L57.23) (human); assay: cell-based or functional assay
[13] = target: T2, recombinant water-soluble 'empty' …; assay: competitive binding ELISA on recombinant HLA-DR4; competitor biotinylated YEAK

## heteropolymer YEAK (Copolymer 1), poly(Y,E,A,K)
[1]
  affinity determined by competition: 2.5 µM
[2]
  affinity determined by competition: 8 µM
[3]
  percent of YEAK at the lower molecular weight position of control (unbound) YEAK: < 10%
[4]
  percent of YEAK at the lower molecular weight position of control (unbound) YEAK: < 10%
[5]
  percent of YEAK at the lower molecular weight position of control (unbound) YEAK: < 10%
[6]
  percent of added YEAK in the bound fraction: > 95%
[7]
  percent of added YEAK in the bound fraction: 80%
[8]
  percent of added YEAK in the bound fraction: > 95%

## AGFKGEQGPKGEP [collagen II (CII) peptide 261-273, AGFKGEQGPKGEP]
[9]
  binding result: binds
[10]
  binding result: binds

## AKKYAAAAAAKAAAA [synthetic 15-mer peptide SEQ ID NO: 8, AKKYAAAAAAKAAAA]
[11]
  inhibition of the DR4 D3 T cell clone (IL-2 secretion): > 80%

## AKEYAAAAAAAAAAA [synthetic 15-mer peptide SEQ ID NO: 20, AKEYAAAAAAAAAAA]
[12]
  inhibition of the response of 19.3 T cells (IL-2 secretion): ~100%

## AEKAYAAAAAAAAAA [synthetic 15-mer peptide SEQ ID NO: 33, AEKAYAAAAAAAAAA]
[11]
  inhibition of the DR4 3838 T cell clone (IL-2 secretion): > 80%

## AEAYKAAAAAAAAAA [synthetic 15-mer peptide SEQ ID NO: 23, AEAYKAAAAAAAAAA]
[11]
  inhibition of the DR4 3838 T cell clone (IL-2 secretion): > 80%

## AAEYKAAAAAAAAAA [synthetic 15-mer peptide SEQ ID NO: 26, AAEYKAAAAAAAAAA]
[12]
  inhibition of the response of 19.3 T cells (IL-2 secretion): ~100%

## AAKYAEAAAAKAAAA (also called peptide 15) [synthetic 15-mer peptide SEQ ID NO: 15, AAKYAEAAAAKAAAA]
[12]
  inhibition of the response of 19.3 T cells (IL-2 secretion): ~100%
[11]
  inhibition of the DR4 D3 T cell clone (IL-2 secretion): > 80%
[13]
  affinity determined by competition: < 1 µM

## EKAYAAAAAAAAAAA [synthetic 15-mer peptide SEQ ID NO: 27, EKAYAAAAAAAAAAA]
[12]
  inhibition of the response of 19.3 T cells (IL-2 secretion): ~100%
[11]
  inhibition of the DR4 3838 T cell clone (IL-2 secretion): > 80%
  inhibition of the DR4 D3 T cell clone (IL-2 secretion): > 80%

## AEKYAAAAAAKAAAA [synthetic 15-mer peptide SEQ ID NO: 6, AEKYAAAAAAKAAAA]
[11]
  inhibition of the DR4 3838 T cell clone (IL-2 secretion): > 80%

## EKKYAAAAAAKAAAA [synthetic 15-mer peptide SEQ ID NO: 17, EKKYAAAAAAKAAAA]
[11]
  inhibition of the DR4 3838 T cell clone (IL-2 secretion): > 80%

## EAAYAAAAAAKAAAA [synthetic 15-mer peptide SEQ ID NO: 16, EAAYAAAAAAKAAAA]
[11]
  inhibition of the DR4 3838 T cell clone (IL-2 secretion): > 80%
  inhibition of the DR4 D3 T cell clone (IL-2 secretion): > 80%

## EAKYAAAAAAKAAAA [synthetic 15-mer peptide SEQ ID NO: 18, EAKYAAAAAAKAAAA]
[11]
  inhibition of the DR4 D3 T cell clone (IL-2 secretion): > 80%
[13]
  affinity determined by competition: 3 µM

## AEEYAAAAAAKAAAA [synthetic 15-mer peptide SEQ ID NO: 11, AEEYAAAAAAKAAAA]
[11]
  inhibition of the DR4 3838 T cell clone (IL-2 secretion): > 80%

## AKKYAEAAAAAAAAA [synthetic 15-mer peptide SEQ ID NO: 22, AKKYAEAAAAAAAAA]
[11]
  inhibition of the DR4 3838 T cell clone (IL-2 secretion): > 80%

## AAKYEAAAAAAAAAA [synthetic 15-mer peptide SEQ ID NO: 28, AAKYEAAAAAAAAAA]
[11]
  inhibition of the DR4 3838 T cell clone (IL-2 secretion): > 80%
